The results in this text go back to US20260217833A1 (APTEVO RESEARCH AND DEVELOPMENT, published 2026).

The target in one test is T1, Human PD-L1 full-length (human, UniProt Q9NZQ7 19-290).
T1 construct: also called PDL01021; CHOK1SV/huPDL1
Kind of test: MSD cell binding, CHOK1SV/human PD-L1 cells; x axis without printed unit.

Another test has as its target T2, Cyno PD-L1 full-length (cynomolgus, UniProt Q9NZQ7 19-290 (human entry)).
T2 construct: also called PDL01022; CHOK1SV/cynoPDL1
Kind of test: MSD cell binding, CHOK1SV/cynomolgus PD-L1 cells; x axis without printed unit.

The target in another test is T3, human CD40 full-length (human, UniProt P25942 21-277).
T3 construct: Also used for CD40 of Daudi cells, of CD40-expressing HEK293 cells and of the BPS CD40/NFkB HEK293 reporter cells where the row says so; also called CD4001012; CHOK1SV/CD40
Kind of test: flow cytometry, CHOK1SV/human CD40 cells. On the technique in general: Flow cytometry measures light scatter and fluorescence of single cells or particles in a stream.

The target of a further test is T4, Cynomolgus CHOK1SV/CD40.
T4 construct: also called Cyno CD40 full-length; CD4001013
T4 receptor chain: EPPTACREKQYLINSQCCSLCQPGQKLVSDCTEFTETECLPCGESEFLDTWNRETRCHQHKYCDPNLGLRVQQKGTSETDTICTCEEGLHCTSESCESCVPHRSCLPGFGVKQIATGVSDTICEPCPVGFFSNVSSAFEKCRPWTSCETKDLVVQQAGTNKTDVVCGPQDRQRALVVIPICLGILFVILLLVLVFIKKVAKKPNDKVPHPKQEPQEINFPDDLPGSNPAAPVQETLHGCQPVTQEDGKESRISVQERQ
Kind of test: flow cytometry, CHOK1SV/cynomolgus CD40 cells.

T1 sequence (Q9NZQ7 19-290): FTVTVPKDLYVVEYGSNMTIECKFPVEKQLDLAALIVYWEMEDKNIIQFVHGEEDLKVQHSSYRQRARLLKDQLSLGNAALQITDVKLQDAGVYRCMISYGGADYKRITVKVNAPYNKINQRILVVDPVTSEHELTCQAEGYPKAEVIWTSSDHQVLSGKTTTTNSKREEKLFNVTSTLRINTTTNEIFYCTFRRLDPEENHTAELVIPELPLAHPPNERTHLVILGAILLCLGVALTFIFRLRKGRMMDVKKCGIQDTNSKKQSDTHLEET
T2 sequence (Q9NZQ7 other isoform, or with tags, fused parts or gaps): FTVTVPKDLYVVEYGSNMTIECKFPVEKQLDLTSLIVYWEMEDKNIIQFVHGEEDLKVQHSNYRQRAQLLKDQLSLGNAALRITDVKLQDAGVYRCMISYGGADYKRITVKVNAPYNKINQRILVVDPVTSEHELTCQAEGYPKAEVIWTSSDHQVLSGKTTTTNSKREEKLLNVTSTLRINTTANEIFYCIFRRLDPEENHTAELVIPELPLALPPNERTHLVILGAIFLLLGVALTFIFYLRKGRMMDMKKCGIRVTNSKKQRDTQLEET

B1: PDL01049 (10B2LH x human IgG1 WT Fc) (Fc fusion)
chain: DIQMTQTTSSLSASLGDRVTISCRASQDIRNYLNWYQQKPDGTVKLLIYYTSRLQSGVPSRFSGSGSGTDYSLTITTLEQEDFATYFCQQGNMFPYTFGGGTKLEIKGGGGSGGGGSGGGGSGGGGSKVQLQQSGAEVVKPGASVKLSCKASGYNLTEYIIHWVKQRSGQGLEWIGWFYPGSGSIKYNEKFKDKATLTADKSSTTVYMDLSRLTSEDSAVYFCARHGLYYGFPYWGQGTSVTVSS
notes: not shown: human IgG1 WT Fc
Consider B1, for which the binding result in the test with Human PD-L1 full-length and in the test with Cyno PD-L1 full-length was “binds” in each case.

B2: PDL01039 (Fc fusion)
scFv: EVQLQESGPSLVKPSQTLSLTCSVTGDSITSGYWNWIRKFPGKKLEYMGYISYTGSTYYNPSLKSRISIARDTSKNQYFLQLNSVTTEDTATYYCTRGENWDGGYFDYWGQGTTLTVSSGGGGSGGGGSGGGGSGGGGSDIVLTQSPASLAVSLGQRATISCRASKSVSKSGYSYLHWYQQKPGQTPKLLIYLASNLESGVPARFSGSGSGTDFTLNIHPVEEEDAATYYCQHSWELPYTFGGGTKLEIK
notes: also called 7H11HL x human IgG1 WT Fc; not shown: human IgG1 WT Fc (hinge-CH2-CH3) and its junction to the scFv
For the molecule B2, the binding result in the test with Human PD-L1 full-length and with Cyno PD-L1 full-length was “binds” each time.

B3: PDL01051 (antibody, human IgG1, kappa, V domains shown)
VH: EVQLQESGPSLVKPSQTLSLTCSVTGDSITSGYWNWIRKFPGNRLEYMGFRSYSGTTYYNPSLKSRISITRDTSKNQYYLQLNSVTTEDTATYYCARFSDFGSSENTMDYWGQGTSVTVSS
VL: DIVMTQSHKFMSTSVGDRVTITCKASQDVGTAVAWYQKKPGQSPKLLISWASTRHTGVPDRFTGSGSGTDFTLTISNVQSEDLADYFCQQYSSYPYTFGGGTNLEIKR
notes: positive control; also called 7A3 chimeric mAb
Turning to B3, the binding result in the test with Human PD-L1 full-length and with Cyno PD-L1 full-length was “binds” each time.

B4: PDL01050 (antibody, human IgG1, kappa, V domains shown)
VH: EVKFEESGGGLVQPGGSMKLSCFASGFTFSYYWMNWVRQSPEKGLEWIAEIRLKSNNYATHYAESVKGRFTISRDDSKSSVYLEMNNLRAEDTGIYHCTRPPIYYGNYEAYWGQGTLVTVSA
VL: DIQMTQSPSSLSASLGGKVTITCKASQDINKYIAWYQHKPGKGPRLLIHYTSILQPGIPSRFSGSGSGRDYSFSISNLEPEDIATYYCLQYDNLRTFGGGTKLEIKR
notes: positive control; also called 5F11 chimeric mAb
As for B4, the binding result with Human PD-L1 full-length and with Cyno PD-L1 full-length was “binds” in each case.

B5: PDL01038 (Fc fusion)
scFv: EVQLQESGPSLVKPSQTLSLTCSVTGDSITSGYWNWIRKFPGNRLEYMGFRSYSGTTYYNPSLKSRISITRDTSKNQYYLQLNSVTTEDTATYYCARFSDFGSSENTMDYWGQGTSVTVSSGGGGSGGGGSGGGGSGGGGSDVQITQSPSYLAASPGETITINCRASKSISKYLAWYQEKPGKTNKLLIYSGSTLQSGIPSRFSGSGSGTDFTLTISSLEPEDFAMYYCQQHNEYPFTFGAGTKLEIK
notes: also called 7A3-2HL x human IgG1 WT Fc; not shown: human IgG1 WT Fc (hinge-CH2-CH3) and its junction to the scFv
In the case of B5, the binding result with Human PD-L1 full-length and with Cyno PD-L1 full-length was “binds” throughout.

B6: PDL01042 (Fc fusion)
scFv: DIQMTQTTSSLSASLGDRVTISCSASQGIRNYLNWYQQKPDGTVKLLIYYTSTLHSGVPSRFSGSGSGTDYSLTISNLEPEDIATYYCQQYSKLPWTFGGGTRLEIKGGGGSGGGGSGGGGSGGGGSQIQLQQSGPELVKPGASVKISCKASGYTFTDYYINWVKQKPEQGLEWIGWTFPGSINTKYNEKFKGKATLTVDTSSSTAYMQLNSLTSEDTAVYFCARSPYEFDYWGQGTTLTVSS
notes: also called 3G5LH x human IgG1 WT Fc; not shown: human IgG1 WT Fc (hinge-CH2-CH3) fused C-terminal to the scFv, and its junction
As to B6, the binding result with Human PD-L1 full-length and in the test with Cyno PD-L1 full-length was “binds” each time.

B7: PC401129 (bispecific antibody)
scFv-Fc-scFv chain: DIQMTQSPSSLSASVGDRVTITCRASQDINKFLSWYQQKPGKAPKLLIHYTSSLQSGVPSRFSGSGSGTDFTLTISSLQPEDFATYYCLQYDNLYTFGQGTKLEIKGGGGSGGGGSGGGGSGGGGSEVQLVESGGGLVQPGGSLRLSCAASGFTFSDYGMAWVRQAPGKGLEWVSFITSLAYIIYYADSVKGRFTISRDNAKNSLYLQMNSLRAEDTAVYYCARNYGSSPYYFDYWGQGTLVTVSSEPKSSDKTHTCPPCPAPPAAAPSVFLFPPKPKDTLMISRTPEVTCVVVDVSHEDPEVKFNWYVDGVEVHNAKTKPREEQYNSTYRVVSVLTVLHQDWLNGKEYKCAVSNKALPAPIEKTISKAKGQPREPQVYTLPPSRDELTKNQVSLTCLVKGFYPSDIAVEWESNGQPENNYKTTPPVLDSDGSFFLYSKLTVDKSRWQQGNVFSCSVMHEALHNHYTQKSLSLSPGGGGSPSDIQMTQSPSSVSASVGDRVTITCRASQSLNFSVNQKNYLAWYQQKPGKAPKLLIYWASSLQSGVPSRFSGSGSGTDFTLTISSLQPEDFATYYCQHYYSYPWTFGQGTKVEIKGGGGSGGGGSGGGGSGGGGSQVQLVQSGAEVKKPGSSVKVSCKASGYTFSTSWIEWIRQAPGQGLEWMGSILPGSGSTNYAQKFQGRVTITADTSTSTAYMELSSLRSEDTAVYYCARGDDGSYVRWYFDHWGQGTLVTVSS
notes: also called L-Leu30Asn
For B7, the binding result with human CD40 full-length and with Cynomolgus CHOK1SV/CD40 was “binds” each time.

B8: CD4001242 (Fc fusion)
chain: EPKSSDKTHTCPPCPAPPAAAPSVFLFPPKPKDTLMISRTPEVTCVVVDVSHEDPEVKFNWYVDGVEVHNAKTKPREEQYNSTYRVVSVLTVLHQDWLNGKEYKCAVSNKALPAPIEKTISKAKGQPREPQVYTLPPSRDELTKNQVSLTCLVKGFYPSDIAVEWESNGQPENNYKTTPPVLDSDGSFFLYSKLTVDKSRWQQGNVFSCSVMHEALHNHYTQKSLSLSPGGGGSPSDIQMTQSPSSVSASVGDRVTITCRASQSLLFSVNQKNYLAWYQQKPGKAPKLLIYWASSLQSGVPSRFSGSGSGTDFTLTISSLQPEDFATYYCQHYYSYPWTFGQGTKVEIKGGGGSGGGGSGGGGSGGGGSQVQLVQSGAEVKKPGSSVKVSCKASGYTFSTSWIEWIRQAPGQGLEWMGSILPGSGSTNYAQKFQGRVTITADTSTSTAYMELSSLRSEDTAVYYCARGDDGSYVRWYFDHWGQGTLVTVSS
notes: also called final humanized version of 1D5
As to B8, in the test with Cynomolgus CHOK1SV/CD40, the binding result is listed as “binds”.

B9: PDL01041 (Fc fusion)
scFv: DIQMTQSPASLSASVGETVTITCRASENIYSFLAWYQQKQGKSPQLLVYKAKTLTEGVPSRFSGSGSGTQFSLKINSLQPEDFGSYYCQHHYGSPPETFGGGTKVEIKGGGGSGGGGSGGGGSGGGGSDVKLVESGGGLVKPGGSLKLSCAASGFTFSSYTMSWVRQTPEKRLEWVATISSGGNYTYYPDSVKGRFTISRDNAKNTLYLQLSSLKSEDTAMYYCTRDQAYYGNLFTYWGQGTLVTVSA
notes: also called 2C11LH x human IgG1 WT Fc; not shown: human IgG1 WT Fc and any junction residues between scFv and hinge
In the case of B9, the binding result with Human PD-L1 full-length and with Cyno PD-L1 full-length was “binds” throughout.

B10: PDL01036 (6F6HL x human IgG1 WT Fc) (Fc fusion)
chain: QGQMQQSGAELVKPGASVKLSCKTSGFTFSSSYITWLKQKPGQSLEWIAWIYVGTGGISYNQKFTGKAQLTVDTSSSTAYMQFSSLTTEDSAIYYCARHGRYHWYFDVWGAGTTVTVSSGGGGSGGGGSGGGGSGGGGSDIVMTQSHKFMSTSVGDRVTITCKASQDVGTAVAWYQKKPGQSPKLLISWASTRHTGVPDRFTGSGSGTDFTLTISNVQSEDLADYFCQQYSSYPYTFGGGTNLEIK
notes: also called 6F6 clone PDL0136; not shown: human IgG1 WT Fc
Take B10: the binding result in the test with Human PD-L1 full-length and with Cyno PD-L1 full-length was “binds” in each case.
